Ends that are not written are not given here.
Molecular target: Stx2a A-subunit (dissociated from recombinant Stx2a) (enterohemorrhagic Escherichia coli …, UniProt P09385 23-319)
Test: AlphaScreen or HTRF
Settings: both partners purified

Chain of Stx2a A-subunit (dissociated from recombinant Stx2a) (P09385 23-319): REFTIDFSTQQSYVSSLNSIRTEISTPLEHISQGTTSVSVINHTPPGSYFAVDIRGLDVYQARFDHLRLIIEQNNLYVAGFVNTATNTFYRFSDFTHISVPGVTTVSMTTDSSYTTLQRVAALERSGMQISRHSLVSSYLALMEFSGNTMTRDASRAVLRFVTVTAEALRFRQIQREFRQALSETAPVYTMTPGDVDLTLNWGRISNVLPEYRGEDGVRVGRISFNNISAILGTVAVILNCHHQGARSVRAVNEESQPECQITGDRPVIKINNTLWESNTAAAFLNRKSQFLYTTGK

Binder RRRRA-NH2 (source: synthetic peptide) [R4A-mono] has an IC50 of 2700 nM.
